From the DeepSol protein solubility set

assay: soluble on expression in E. coli; label from the status in PepcDB or PDB records

Q: With “MTNPVDVNLINGIALAFEGDAVYSYYVRRHLIFQGKTKPSQLHRLATRYVSAKAQANLIQAMLEAQLLTEKEEDIYKRGRNTNSHTKAKNADIITYRMSTGFEAIMGYLDMMGQKERLEELIRWCIEYVEKQQLISSLEHHHHHH” as the sequence, how does the “soluble on expression in E. coli” value read?
A: soluble

Q: With “MTALEVLGGWPVPAAAAAVIGPAGVLATHGDTARVFALASVTKPLVARAAQVAVEEGVVNLDTPAGPPGSTVRHLLAHTSGLAMHSDQALARPGTRRMYSNYGFTVLAESVQRESGIEFGRYLTEAVCEPLGMVTTRLDGGPAAAGFGATSTVADLAVFAGDLLRPSTVSAQMHADATTVQFPGLDGVLPGYGVQRPNDWGLGFEIRNSKSPHWTGECNSTRTFGHFGQSGGFIWVDPKADLALVVLTARDFGDWALDLWPAISDAVLAEYTLEHHHHHH” as the sequence, how does the “soluble on expression in E. coli” value read?
A: soluble

Q: Which “soluble on expression in E. coli” value does the source give for “MGSDKIHHHHHHMTPTAFNTGRVQVNKTIAELRSLGKDARERVPFSQLGQYQPLDRDSNQLMDRIRRLLIPELLPERTRRMAASPFAFFRGTAELMEADLRQQPNSTIETFVCGDAHIGNFGFYASPERRLLFDLNDFDEAGINPWEWDLKRLLVSVLLAAQANGIKEKKIKQFLPTVAASYRKSMKQMFTQTTLARFYPLNDVEKLIQASALTDADSQLLMTIINRASKRDSEQVVRKFTTLDSRGNLCFRENAPKTTHVTDDVTTHIATYFAAYRQTVRPDVNLLLSQYHLTDVVRHSVGVGSFGSRCYLVLLTSIDGSHLVLQIKEALPTRQQGSQTLAQLTVAQEQTEGQRIVDCQKILQSASDSFLGYFAGNQHSFYVRQFRDMKESIDLTQLDWGQLQTYANTCAWTLAIAHCQSPTAAMIRGYIGGGKQFDEQLAAFASAYAQQVQTDYESFVAYRLPTKQP” here?
A: not soluble

Q: With “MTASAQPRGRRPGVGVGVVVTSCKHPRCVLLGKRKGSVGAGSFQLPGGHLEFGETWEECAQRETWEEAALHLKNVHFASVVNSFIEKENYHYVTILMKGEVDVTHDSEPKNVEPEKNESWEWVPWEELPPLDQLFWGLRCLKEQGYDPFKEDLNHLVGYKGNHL” as the sequence, how does the “soluble on expression in E. coli” value read?
A: soluble

Q: For “MGSDKIHHHHHHMRVCAEHHVINTATGPMGTRVYRPAGPGSYPAILFYSEIFQETAPISRMATVLAGHGFVVLVPEIFHELNPAGTVLGYDDMGKDKGNSDKATKPLESHDSDTAAMVDFVRRQPWCQGKIGAMGVCIGGHLAYRAAVNPDVAAAFCLYATDIHSGTIPSQPGNDSLSRTRDIRGELYMVFGKQDPHVPGEGRRLIQHNLEQHGVNHSWLEVNAEHAFMRDGDARHDPALALVMYQSAIALFQRTL”, which “soluble on expression in E. coli” value is on record?
A: not soluble

Q: With “MGSDKIHHHHHHMNTPREVTLHFLRTAGHPLTRWALQRQPPSPKQLEEEFLKIPSNFVSPEDLDIPGHASKDRYKTILPNPQSRVCLGRAQSQEDGDYINANYIRGYDGKEKVYIATQGPMPNTVSDFWEMVWQEEVSLIVMLTQLREGKEKCVHYWPTEEETYGPFQIRIQDMKECPEYTVRQLTIQYQEERRSVKHILFSAWPDHQTPESAGPLLRLVAEVEESPETAAHPGPIVVHCSAGIGRTGCFIATRIGCQQLKARGEVDILGIVCQLRLDRGGMIQTAEQYQFLHHTLALYAGQLPEEPSP” as the sequence, how does the “soluble on expression in E. coli” value read?
A: soluble

Q: With “MLFCTNIAIAQGTIEDYRRAYSAGEKFSANKVSYSNVNPEWIGKTHYFWYVRNTPDGRIYVLVDADTQNRKDLFDHKLVAAALSEASGRKIEATSLYLDRLSVNNGLDTLHFVFNNHRWMYVIDKNQLTDEGALPTPRKQRHWMETDDEKTAAPVTSPDKKYTAFIKNHNIYVKETATGKEKQLSLDGTLGNYYSAYIRWSPDSKKSLPARFVR” as the sequence, how does the “soluble on expression in E. coli” value read?
A: not soluble

Q: Which “soluble on expression in E. coli” value does the source give for “MTPPIISPESFEALRRMRAAEPTMVAERFKQRRKRELLGEDGKLFIVAADHPARGALAVGDNETAMANRYELLERMAIALSRPGVDGVLGTPDIIDDLAALGLLDDKIVVGSMNRGGLRGASFEMDDRYTGYNVSSMVDRGVDFAKTLVRINLSDAGTAPTLEATAHAVNEAAAAQLPIMLEPFMSNWVNGKVVNDLSTDAVIQSVAIAAGLGNDSSYTWMKLPVVEEMERVMESTTMPTLLLGGEGGNDPDATFASWEHALTLPGVRGLTVGRTLLYPQDGDVAAAVDTAARLVHTDIQQFTSQSILEHHHHHH” here?
A: soluble

Q: For “MSGVYDSQADIYLDARPTYPADWYSKLAALSHRHNLAWDAGTGNGQAAIGIAEHYERVVATDVSETMLNLGKPHPKVTYHHTPSSMTEDEMVDLIGGENSVDLITVATAVHWFDLPRFYAIANRLLRKPGGIIAVWSYNTDMVVNPEFDSVMTRFIAETLPYCKFPESQYFLDGYKTLPFPFESVGLGSEGKPMELEMKKTVSFEGFLRMLRSWSAVGAAKEKGVDLLSDNVVKELETAWGGYELVRTIVYKTFMLAGTVP”, which “soluble on expression in E. coli” value is on record?
A: soluble

Q: With “PVDCSVIVVNKQTKDYAESVGRKVRDLGMVVDLIFLNTEVSLSQALEDVSRGGSPFAIVITQQHQIHRSCTVNIMFGTPQEHRNMPQADAMVLVARNYERYKNECREKEREEIARQA” as the sequence, how does the “soluble on expression in E. coli” value read?
A: soluble

Q: For “MGSDKIHHHHHHMHRSKAALVLAGGGVAGAAYEIGALCAIDQVLEHLSVNEFDVYVGTSAGALISACLANNMSPRTLISVLESSLLGIDQLEPHHLYQLNITDLLYRAAHLPGALVQAIQRWVREGGEVSLLDLIETVAVGLPTGLYDSRSLEQYLRAALEQPGRSNRFADLDHELMIVATDLDTGERAIFGLPPLDNVPISLAVCASAAIPIFYRPVRIGDHDYIDGGLRGTASLDVAIERGAELIVCINPMVPFDNRRHPPGAAISDQGIQRIGNQVFRTFIHAGLHYHIKQVRRRHPEVDIILIEPSRQDRTMFAENTMRFHTRMTIARHGFESVARQLCEHYPYYRAMLARHGITISDERIRQDLRNLQMAGDNPHLVRAALVTGGSLHTAPAGLASTLAELDRLLSRLEVTR”, which “soluble on expression in E. coli” value is on record?
A: not soluble

Q: For “MSLTNLHYTVKSLMRFKDKTVIISGGGNSAIDWANELEPIAKKVYLTYRKEALNGHEAQISQLLSSSATCLFHTTISKLIARDNKEVIEQVELTDHQTGEVTNLAVDEVIINHGYERDKSLLDQSEVTLDRIDDYYIAGTPTSATSVGGIYAAGDVLKHEGKLHLIAGAFQDAANAVNQAKQWIEPEAHQSAMVSSHNHVFKERNRELIRQMLKEGHHHHHH”, which “soluble on expression in E. coli” value is on record?
A: not soluble

Q: For “MVKFMAIGTPLLKGSIKFLLLGSGELGKEVVIEAQRLGIECIAVDRYQNAPAMQVAHKSYVIDMKDYDALMAIIEREEPDYIVPEIEAINTDALIDAEKMGYTVIPTAEATKITMNRELIRRLAAEKLGLKTAKYEFADSLEELRDAVEKLGLPCVVKPIMSSSGKGQSVVRSEEDIEKAWKIAKEGARGIGNRVIVEEFINFDYEITLLTARTAEGTKFCEPIGHVQIDGDYHESWQPHNMSAELKEQAQDIAKKVTDALGGYGIFGVELFVKGDEVIFSEVSPRPHDTGMVTMITQEMSEFEIHVRAILGLPVSTKLIHPGASHVIKAEINKYAPKYHIEDALKVPNTKLRLFGKPNAKVGRRMGVALAYADSVEKARELAEKCAHAVRIE”, which “soluble on expression in E. coli” value is on record?
A: soluble

Q: Which “soluble on expression in E. coli” value does the source give for “MSLTMREVAKAAGVSIKTVSNVVNDYEFVSQATRDKVNKAIAELGYTVNVSARNLRRGQTGIIGLAIPDLQMPYFAQLSSLVIEEAKKVGLRVIVEPTQYSRDGELEALHGSQQMMIDGLIYSPLELGQDDVEQLKVDYPLVLVGERIFTDQVDHIATENVEGAKRATQYLLTTGCRRVAVVGVHPGEKVGSAALRYQGYLEALEEAGVEFDDRLVVESGMWHRSDGVRAMNALLDSGVEVDGVVALNDMLASGVMHAIQMHGLHIPDDISVVGFDNSDDSQYLSPALTSIAPGLEAVARLSVKVLKERIDGRDPNADRPGEKVFRKVASSLVVRQSTEGHHHHHH” here?
A: soluble

Q: For “MGSDKIHHHHHHGEGVVVATGKAQAAASTVAGNAYGRLQFSPCTLSSGSAAGNIEAQCAQLQVPENPAAPNGRKLALKIAWLESDAGASHAPDPVFFIAGGPGQSATQVAAIVDMGLREVRKHRDIFLVDQRGTGGSHPLECRDAGGTPLVLENDSAATAEQLSAYAARCAAGLRNDADPRYFTTSEAIGDLDAVREALGAQQINLIGGSYGTRVAQQYAARYPQHTRTVVLDGVAPNDLVIGGEFARTFEDAIALQTTQCKAQPACAKRFPVDTRTQLRQVVERLRQAPAPVDYRDPRTGELHHQEVNADTVAGLAFGFSYAPETASLLPLVLDEAAAGRYASLMALAQMSGSDMADQMNRPMQWSVLCSEDAGRYRAPAAQDDTLLGAQVAEMFFAACKTWPSKPTPAAAFAPFRSTLPVLLLSGQLDPVTPPRYAARVLQGLPNGRHLIAPGQSHGVFRLGCMPKVLGQFLQTADAKGLDARCVDSLTDVPAFTSFNGWEP”, which “soluble on expression in E. coli” value is on record?
A: not soluble

Q: With “MSVAEFDADVIVDARDCIMGRVASQVAEQALDGETVAVVNAERAVITGREEQIVEKYEKRVDIGNDNGYFYPKRPDGIFKRTIRGMLPHKKQRGREAFESVRVYLGNPYDEDGEVLDGTSLDRLSNIKFVTLGEISETLGANKTW” as the sequence, how does the “soluble on expression in E. coli” value read?
A: soluble

Q: With “MGSDKIHHHHHHMNMNREQLKFCLLGAVFLFGGCTASDPRTHLDSSADTLFQITPDQNHAALERQSGTDQYLKLLLNVAEDAEVKEVQVKPGLVSKDTATLSMPLTDGRTVSFKLSRSDSVASGMVGWVGDMPSNRRQLYPSPAEIDMDPLNWVSLVSDGNLVVGDIRVDGQLYRLTAVGKGQQVLVKVDESKLPPEAAPIPVPVQAQEKTRSLSTSQSRKSTIRVLFVTTHQSRAMFPNYKIELAQALQNANQYLINSKVDAVYELSDIYDSDYDETGKSPQTQLSDMKADKPFGAKIHIEREKGRADLVSMLSTFSIYCGIANLTASVERAFSAISCFGSLGHELGHNMGAGHKDEAPVASLPPYAYGYQHTAPNFHTQMRTSNGAIPYHSNPRLQYQGVPMGTVDKNDVARTFNENRDTVANFYPDPAHRVRLWLYGANRGCFIDLKPGEQALLSWFTECKDNDVNPVRVEVKDFYSGSTPRKLCFANIFYTVNSCYTGSNFSGDFVITSVHTGGGKPEGFKFTRRLIGPVYRVSYE” as the sequence, how does the “soluble on expression in E. coli” value read?
A: not soluble

Q: For “MGSDKIHHHHHHMTNFPPLLLAYGLDLEGPIHRGIATYAKAMIRLLHQSGYPLHLLTGAGGLAQGRLASLSLHRHLDQPSNWSRIQLAQSYFAERLGRSRQTPIKVDSNLIIGDRIQYLQQIDQLINHPFFYRKLRLQAKISDRPFFLKTKNYPVVLTSSPLNLRVSSSSRLIQVIHDLIPLNYLRHPDEAVTFLRRLQATADYSDRIICLSETTRQQFLELFPQAESRTLTLYQPVSFSAEALALTDRPDFAAAVLRRYGLERDRYFFFVGAIEPRKNLETLIAAQQVAVLRTQLPLVIGGTADVHTQDYAQQLQQRSRSTDQILWTGYLTEAEKICLLRHCRALTFLSWQEGFGIPMIEAALCGRSSLLANIPVLREVMGAAATYANPQHPLEVADQLIQLGCYPAQLSELRSRATQQIQAFADGQVQQQIQQVLQSLIS”, which “soluble on expression in E. coli” value is on record?
A: not soluble

Q: With “MELKEELLRGIYGFGFEKPSAIQKSAVAPCTTGKDVTIQSQAGSGKTVISLIDILQGIDCEDAHLQVILLAPQRGMAQRAHEQLKSLGRNLNVNATCLGFDTTAENDKISHVLMGTPKDFLSNIPSDTSRIKMFVLDEADEMLSKGFKDQIYEVFRSMPQDVQVVLLSATMPSEVLDVTNRFMRDPIRILVKKDELTLEGIRQFYINVQKDEWKFNCLCDLLKTSRETQALIFCNTRRRVTQLTEQLMSIPIKVSCFHGNMEHNEREDMVKDFNSRNTRVLVTTDLMARGMNIRKSLIINYDVSGNMENYMLRNGRQGNFGSKGLPISFFTENDISDLKKIENHYSTRIEEMPESFLEYLDEN” as the sequence, how does the “soluble on expression in E. coli” value read?
A: not soluble
